# Strand notation (5' to 3'): a small letter for the sugar, then the base; units joined by * are phosphorothioate-linked, units joined directly phosphodiester-linked; [ ] holds rarer units or linkages, { } end groups; capitals alone tell only the bases. m = 2'-O-methyl; r = 2'-OH (RNA)
# B1: G000494: TTR sgRNA modified sequence, Human, SEQ ID No. 101; guide sequence of CR003360 (nucleic acid)
# guide: mG*mU*mG*rArGrUrCrUrGrGrArGrArGrCrUrGrCrArUrGrUrUrUrUrArGrAmGmCmUmAmGmAmAmAmUmAmGmCrArArGrUrUrArArArArUrArArGrGrCrUrArGrUrCrCrGrUrUrArUrCrAmAmCmUmUmGmAmAmAmAmAmGmUmGmGmCmAmCmCmGmAmGmUmCmGmGmUmGmCmU*mU*mU*mU
# B2: G000486: TTR sgRNA modified sequence, Human, SEQ ID No. 93; guide sequence of CR003339 (nucleic acid)
# guide: mA*mC*mA*rCrArArArUrArCrCrArGrUrCrCrArGrCrArGrUrUrUrUrArGrAmGmCmUmAmGmAmAmAmUmAmGmCrArArGrUrUrArArArArUrArArGrGrCrUrArGrUrCrCrGrUrUrArUrCrAmAmCmUmUmGmAmAmAmAmAmGmUmGmGmCmAmCmCmGmAmGmUmCmGmGmUmGmCmU*mU*mU*mU
# B3: G000488: TTR sgRNA modified sequence, Human, SEQ ID No. 95; guide sequence of CR003346 (nucleic acid)
# guide: mA*mA*mA*rGrUrUrCrUrArGrArUrGrCrUrGrUrCrCrGrGrUrUrUrUrArGrAmGmCmUmAmGmAmAmAmUmAmGmCrArArGrUrUrArArArArUrArArGrGrCrUrArGrUrCrCrGrUrUrArUrCrAmAmCmUmUmGmAmAmAmAmAmGmUmGmGmCmAmCmCmGmAmGmUmCmGmGmUmGmCmU*mU*mU*mU
# B4: G000480: TTR sgRNA modified sequence, Human, SEQ ID No. 87; guide sequence of CR003353 (nucleic acid)
# guide: mA*mA*mA*rGrGrCrUrGrCrUrGrArUrGrArCrArCrCrUrGrUrUrUrUrArGrAmGmCmUmAmGmAmAmAmUmAmGmCrArArGrUrUrArArArArUrArArGrGrCrUrArGrUrCrCrGrUrUrArUrCrAmAmCmUmUmGmAmAmAmAmAmGmUmGmGmCmAmCmCmGmAmGmUmCmGmGmUmGmCmU*mU*mU*mU
# B5: G000499: TTR sgRNA modified sequence, Human, SEQ ID No. 106; guide sequence of CR005303 (nucleic acid)
# guide: mU*mG*mA*rArUrCrCrArArGrUrGrUrCrCrUrCrUrGrArGrUrUrUrUrArGrAmGmCmUmAmGmAmAmAmUmAmGmCrArArGrUrUrArArArArUrArArGrGrCrUrArGrUrCrCrGrUrUrArUrCrAmAmCmUmUmGmAmAmAmAmAmGmUmGmGmCmAmCmCmGmAmGmUmCmGmGmUmGmCmU*mU*mU*mU
# B6: G000489: TTR sgRNA modified sequence, Human, SEQ ID No. 96; guide sequence of CR003344 (nucleic acid)
# guide: mU*mU*mU*rGrArCrCrArUrCrArGrArGrGrArCrArCrUrGrUrUrUrUrArGrAmGmCmUmAmGmAmAmAmUmAmGmCrArArGrUrUrArArArArUrArArGrGrCrUrArGrUrCrCrGrUrUrArUrCrAmAmCmUmUmGmAmAmAmAmAmGmUmGmGmCmAmCmCmGmAmGmUmCmGmGmUmGmCmU*mU*mU*mU
# B7: G000501: TTR sgRNA modified sequence, Human, SEQ ID No. 108; guide sequence of CR005300 (nucleic acid)
# guide: mU*mC*mA*rCrArGrArArArCrArCrUrCrArCrCrGrUrArGrUrUrUrUrArGrAmGmCmUmAmGmAmAmAmUmAmGmCrArArGrUrUrArArArArUrArArGrGrCrUrArGrUrCrCrGrUrUrArUrCrAmAmCmUmUmGmAmAmAmAmAmGmUmGmGmCmAmCmCmGmAmGmUmCmGmGmUmGmCmU*mU*mU*mU
# B8: G000502: TTR Cyno specific sgRNA modified sequence, SEQ ID No. 114; guide sequence of CR000689; cross homologous between mouse and cyno (nucleic acid)
# guide: mA*mC*mA*rCrArArArUrArCrCrArGrUrCrCrArGrCrGrGrUrUrUrUrArGrAmGmCmUmAmGmAmAmAmUmAmGmCrArArGrUrUrArArArArUrArArGrGrCrUrArGrUrCrCrGrUrUrArUrCrAmAmCmUmUmGmAmAmAmAmAmGmUmGmGmCmAmCmCmGmAmGmUmCmGmGmUmGmCmU*mU*mU*mU
# B9: G000571: TTR sgRNA modified sequence, Human, SEQ ID No. 112; guide sequence of CR005301 (nucleic acid)
# guide: mG*mU*mC*rArCrArGrArArArCrArCrUrCrArCrCrGrUrGrUrUrUrUrArGrAmGmCmUmAmGmAmAmAmUmAmGmCrArArGrUrUrArArArArUrArArGrGrCrUrArGrUrCrCrGrUrUrArUrCrAmAmCmUmUmGmAmAmAmAmAmGmUmGmGmCmAmCmCmGmAmGmUmCmGmGmUmGmCmU*mU*mU*mU
# Tested on: TTR
# Assay: TTR editing in primary human hepatocytes treated with LNP formulated Spy Cas9 mRNA (SEQ ID NO: 2) and sgRNAs (Table 16)
# Assay type: cell-based
# Details: LNP formulated Spy Cas9 mRNA (SEQ ID NO: 2) and sgRNA, 72 hours
# Description: Primary liver hepatocytes. Primary human liver hepatocytes (PHH) and primary cynomolgus liver hepatocytes (PCH) (Gibco) were cultured per the manufacturer's protocol (Invitrogen, protocol 11.28.2012). In brief, the cells were thawed and resuspended in hepatocyte thawing medium with supplements (Gibco, Cat. CM7000) followed by centrifugation at 100 g for 10 minutes for human and 80 g for 4 minutes for cyno. The supernatant was discarded and the pelleted cells resuspended in hepatocyte plating medium plus supplement pack (Invitrogen, Cat. A1217601 and CM3000). Cells were counted and plated on Bio-coat collagen I coated 96-well plates (ThermoFisher, Cat. 877272) at a density of 33,000 cells/well for human or 60,000 cells/well for cyno (or 65,000 cells/well when assaying effects on TTR protein, described further below). Plated cells were allowed to settle and adhere for 6 or 24 hours in a tissue culture incubator at 37° C. and 5% CO2 atmosphere. After incubation cells were checked for monolayer formation and media was replaced with hepatocyte culture medium with serum-free supplement pack (Invitrogen, Cat. A1217601 and CM4000).
# In general, the lipid nanoparticle components were dissolved in 100% ethanol with the lipid component of various molar ratios. The RNA cargos were dissolved in 25 mM citrate, 100 mM NaCl, pH 5.0, resulting in a concentration of RNA cargo of approximately 0.45 mg/mL. The LNPs were formulated with a lipid amine to RNA phosphate (N:P) molar ratio of about 4.5 or about 6, with the ratio of mRNA to gRNA at 1:1 by weight.
# The LNPs were formed by microfluidic mixing of the lipid and RNA solutions using a Precision Nanosystems NanoAssemblr™ Benchtop Instrument, according to the manufacturer's protocol. A 2:1 ratio of aqueous to organic solvent was maintained during mixing using differential flow rates. After mixing, the LNPs were collected, diluted in water (approximately 1:1 v/v), held for 1 hour at room temperature, and further diluted with water (approximately 1:1 v/v) before final buffer exchange. The final buffer exchange into 50 mM Tris, 45 mM NaCl, 5% (w/v) sucrose, pH 7.5 (TSS) was completed with PD-10 desalting columns (GE). If required, formulations were concentrated by centrifugation with Amicon 100 kDa centrifugal filters (Millipore). The resulting mixture was then filtered using a 0.2 μm sterile filter. The final LNP was stored at −80° C. until further use.
# To quantitatively determine the efficiency of editing at the target location in the genome, sequencing was utilized to identify the presence of insertions and deletions introduced by gene editing.
# Primers were designed around the target site within the gene of interest (e.g. TTR), and the genomic area of interest was amplified.
# Additional PCR was performed per the manufacturer's protocols (Illumina) to add chemistry for sequencing. The amplicons were sequenced on an Illumina MiSeq instrument. The reads were aligned to a reference genome (e.g., the human reference genome (hg38), the cynomologus reference genome (mf5), the rat reference genome (rn6), or the mouse reference genome (mm10)) after eliminating those having low quality scores. The resulting files containing the reads were mapped to the reference genome (BAM files), where reads that overlapped the target region of interest were selected and the number of wild type reads versus the number of reads which contain an insertion, substitution, or deletion was calculated.
# The editing percentage (e.g., the “editing efficiency” or “percent editing” or “indel frequency”) is defined as the total number of sequence reads with insertions/deletions (“indels”) or substitutions over the total number of sequence reads, including wild type.
# Lipid nanoparticle formulations of modified sgRNAs targeting human TTR and the cyno matched sgRNA sequences were tested on primary human hepatocytes and primary cyno hepatocytes in a dose response curve. Primary human and cyno hepatocytes were plated as described in Example 1. […]
row,Molecule,"12.5 ng mRNA, 3.9 nM sgRNA Avg % Edit [%]"
1,B1,6.37
2,B2,61.33
3,B3,44.80
4,B4,59.33
5,B5,16.07
6,B6,16.85
7,B7,32.30

# Tested on: TTR mRNA
# Assay: TTR mRNA knockdown in primary human hepatocytes by quantitative PCR (Tables 34, 35)
# Assay type: cell-based
# Details: TTR mRNA in PHH; LNP dose 100 ng mRNA cargo; 96 hours after treatment; separate experiment; vs untreated control
# Description: In one experiment, PHH were cultured and treated with LNPs comprising Cas9 mRNA (SEQ ID NO:1) and a gRNA of interest (See FIG. 29, Table 34), as described in Example 4. The LNPs were prepared using the cross-flow procedure described above and purified and concentrated using PD-10 columns and Amicon centrifugal filter units, respectively. The LNPs were formulated with an N:P ratio of 6.0 and contained Lipid A, Cholesterol, DSPC, and PEG2k-DMG in a 50:38:9:2 molar ratio, respectively. The LNPs comprised a gRNA:mRNA ratio of 1:2, and the cells were treated at a dose of 300 ng (with respect to the amount of mRNA cargo delivered).
# (§1) Ninety-six (96) hours following LNP treatment (with biological triplicates for each condition), mRNA was purified from PHH cells using the Dynabeads mRNA DIRECT Kit (ThermoFisher Scientific) according to the manufacturer's protocol. Reverse Transcription (RT) was performed with Maxima reverse transcriptase (ThermoFisher Scientific) and a poly-dT primer. The resulting cDNA was purified with Ampure XP Beads (Agencourt). For Quantitative PCR, 2% of the purified cDNA was amplified with Taqman Fast Advanced Mastermix and 3 Taqman probe sets, TTR (Assay ID: Hs00174914_m1), GAPDH (Assay ID: Hs02786624_g1), and PPIB (Assay ID: Hs00168719_m1). The assays were run on the QuantStudio 7 Flex Real Time PCR System according to the manufacturer's instructions (Life Technologies). Relative expression of TTR mRNA was calculated by normalizing to the endogenous controls (GAPDH and PPIB) individually, and then averaged.
# In a separate experiment, TTR mRNA knockdown was evaluated following treatment with LNPs comprising G000480, G000486, and G000502. The LNPs were formulated and PHH were cultured and treated with the LNPs, each as described in the experiment above in this Example with the exception that the cells were treated at a dose of 100 ng (with respect to the amount of mRNA cargo delivered).
# as §1, with “(single treatment” for “(with biological triplicates”, “the High Capacity cDNA Reverse Transcription Kit” for “Maxima reverse transcriptase”, “according to the manufacturer's instructions.” for “and a poly-dT primer. The resulting cDNA was purified with Ampure XP Beads (Agencourt).”, “the” for “the purified”
row,Molecule,Avg % Knockdown [%]
1,B2,97.36
2,B4,95.61
3,B8,90.94

# Same assay, conditions: TTR mRNA in PHH; LNP dose 300 ng mRNA cargo; gRNA:mRNA 1:2; 96 hours after treatment; biological triplicates; vs untreated control
row,Molecule,Avg % Knockdown [%]
1,B1,91.15
2,B9,96.17
3,B3,92.77
4,B4,95.19
5,B5,91.38
6,B6,91.85

# Tested on: TTR
# Assay: TTR editing in primary cyno hepatocytes treated with LNP formulated Spy Cas9 mRNA (SEQ ID NO: 2) and sgRNAs (Tables 17, 18)
# Assay type: cell-based, cynomolgus monkey
# Details: LNP formulated Spy Cas9 mRNA (SEQ ID NO: 2) and cyno matched sgRNAs, 72 hours post treatment
# Procedure, shortened: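 Primary cynomolgus hepatocytes, 24 h after plating, dosed with LNPs (N:P about 4.5 or 6, mRNA:gRNA 1:1 by weight) pre-incubated 5 min at 37° C. in medium with 6% cyno serum, in an 8-point 2-fold dose response. Editing = indel/substitution reads over total reads by amplicon MiSeq sequencing.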
row,Molecule,"12.5 ng mRNA, 3.9 nM sgRNA % Edit [%]"
1,B8,80.70

# Same assay, conditions: Table 17, LNP formulated Spy Cas9 mRNA (SEQ ID NO: 2) and sgRNA, 12.5 ng mRNA, 3.9 nM sgRNA, 72 hours
row,Molecule,"12.5 ng mRNA, 3.9 nM sgRNA Avg % Edit [%]"
1,B1,14.30
2,B9,20.20
3,B4,0.73
4,B5,14.63
5,B6,31.87
6,B7,1.37
